Among the targets are PWI K837A+K838A (Homo sapiens, UniProt P49756 734-843, K837A;K838A); PWI K777A+K778A (Homo sapiens, UniProt P49756 734-843, K777A;K778A); PWI K825A+R828A (Homo sapiens, UniProt P49756 734-843, K825A;R828A); PWI ΔHb (Homo sapiens, UniProt P49756 746-843, del734-745); PWI H737A+K739A (Homo sapiens, UniProt P49756 734-843, H737A;K739A); PWI R769A+R770A (Homo sapiens, UniProt P49756 734-843, R769A;R770A); PWI K734A+R735A+K736A (Homo sapiens, UniProt P49756 734-843, K734A;R735A;K736A); PWI K744A (Homo sapiens, UniProt P49756 734-843, K744A).

Holding throughout (test): fluorescence polarization
(In general: Polarisation of emitted light reports the rotation of a fluorescent probe.)

Data set [1] addresses RBM25 PWI domain + flanking basic region WT (Homo sapiens, UniProt P49756 734-843).

The text below walks through data of article PMC3553564.

By Kd is commonly meant the equilibrium constant for the complex coming apart.

RBM25 PWI domain + flanking basic region WT, sequence (P49756 734-843): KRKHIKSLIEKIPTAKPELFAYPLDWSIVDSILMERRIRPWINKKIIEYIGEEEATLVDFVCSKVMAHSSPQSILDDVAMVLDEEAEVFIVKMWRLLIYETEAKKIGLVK
PWI K837A+K838A, sequence (P49756 734-843 K837A/K838A): as the sequence (P49756 734-843) above, with K104A, K105A counted along it
PWI K825A+R828A, sequence (P49756 734-843 K825A/R828A): as the sequence (P49756 734-843) above, with K92A, R95A counted along it
PWI K777A+K778A, sequence (P49756 734-843 K777A/K778A): as the sequence (P49756 734-843) above, with K44A, K45A counted along it
PWI K734A+R735A+K736A, sequence (P49756 734-843 K734A/R735A/K736A): as the sequence (P49756 734-843) above, with K1A, R2A, K3A counted along it
PWI H737A+K739A, sequence (P49756 734-843 H737A/K739A): as the sequence (P49756 734-843) above, with H4A, K6A counted along it
PWI ΔHb, sequence (P49756 746-843, stated change not applied): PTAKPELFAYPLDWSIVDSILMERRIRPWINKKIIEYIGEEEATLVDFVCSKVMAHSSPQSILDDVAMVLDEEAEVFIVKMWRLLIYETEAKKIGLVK
PWI K744A, sequence (P49756 734-843 K744A): as the sequence (P49756 734-843) above, with K11A counted along it
PWI R769A+R770A, sequence (P49756 734-843 R769A/R770A): as the sequence (P49756 734-843) above, with R36A, R37A counted along it

B1: dsDNA (dsDNA)
DNA 1: CCTTACAGCAAA
DNA 2: TTTGCTGTAAGG
Regarding B1, the Kd in the data set with PWI K837A+K838A is roughly 40.4 µM; in the data set with PWI K777A+K778A it was roughly 160 µM; in data set [1] it was roughly 6.7 µM; with PWI K825A+R828A it was roughly 106 µM; in the data set with PWI H737A+K739A it was roughly 57 µM; with PWI R769A+R770A it was roughly 46 µM. Moreover, the Kd is roughly 194 µM with PWI K734A+R735A+K736A and roughly 23.6 µM with PWI K744A. Besides, the binding result with PWI ΔHb is reported as “no binding”.

B2: dsRNA (dsRNA)
RNA 1: AUCGGGCA
RNA 2: UGCCCGAU
On to B2, for which the Kd in data set [1] was roughly 8.2 µM.

CCTTACAGCAAA (ssDNA) [ssDNA]: the Kd in [1] is roughly 4.4 µM.

With AUCGGGCA (ssRNA) [ssRNA], the Kd was found to be 15.7 ± 2.1 µM in the data set with PWI K837A+K838A; 156 ± 29.4 µM with PWI K777A+K778A; 11.3 ± 1 µM in data set [1]; 106 ± 17.3 µM with PWI K825A+R828A; 61.6 ± 9.3 µM with PWI H737A+K739A; 32.1 ± 1.4 µM with PWI R769A+R770A. For the same molecule, the values for the Kd with PWI K734A+R735A+K736A and with PWI K744A were 183 ± 44.7 µM and 19.9 ± 4.4 µM, respectively. In addition, the binding result with PWI ΔHb is “no binding”.
